Variants at the floor of the assay were thinned out.
What was measured:
biotinyl-Leu-oxazolone = test: self-aminoacylation, catalytic enhancement (BLO) (fold over background); higher = more active; k-Seq, kA / k0A0; sequences stand for … in GGGAAUGGAUCCACAUCUACGAAUUC…UUCACUGCAGACUUGACGAAGCUG
In short: (§1)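 Working in 50 μL HEPES/NaCl/KCl/MgCl2/CaCl2 buffer with 5% acetonitrile at pH 6.9–7.0, mutagenized RNA pools (0.43 μM; 21-nt variable region) were reacted with 2–1250 μM of each biotinyl-aminoacyl-oxazolone for 90 minutes at room temperature. Streptavidin capture followed, with quantification by triplicate qPCR and Illumina sequencing. Catalytic enhancement is reported as median kA over the uncatalyzed rate, the low-activity peak of a bimodal Gaussian fit to the data.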

biotinyl-Val-oxazolone = test: self-aminoacylation, catalytic enhancement (BVO) (fold over background); higher = more active; k-Seq, kA / k0A0; sequences stand for … in GGGAAUGGAUCCACAUCUACGAAUUC…UUCACUGCAGACUUGACGAAGCUG
In short: as §1

biotinyl-Phe-oxazolone = test: self-aminoacylation, catalytic enhancement (BFO) (fold over background); higher = more active; k-Seq, kA / k0A0; sequences stand for … in GGGAAUGGAUCCACAUCUACGAAUUC…UUCACUGCAGACUUGACGAAGCUG
In short: as §1

biotinyl-Ile-oxazolone = test: self-aminoacylation, catalytic enhancement (BIO) (fold over background); higher = more active; k-Seq, kA / k0A0; sequences stand for … in GGGAAUGGAUCCACAUCUACGAAUUC…UUCACUGCAGACUUGACGAAGCUG
In short: as §1

biotinyl-Met-oxazolone = test: self-aminoacylation, catalytic enhancement (BMO) (fold over background); higher = more active; k-Seq, kA / k0A0; sequences stand for … in GGGAAUGGAUCCACAUCUACGAAUUC…UUCACUGCAGACUUGACGAAGCUG
In short: as §1

biotinyl-Trp-oxazolone = test: self-aminoacylation, catalytic enhancement (BWO) (fold over background); higher = more active; k-Seq, kA / k0A0; sequences stand for … in GGGAAUGGAUCCACAUCUACGAAUUC…UUCACUGCAGACUUGACGAAGCUG
In short: as §1

Sequence | self-aminoacylation (biotinyl-Leu-oxazolone) | self-aminoacylation (biotinyl-Val-oxazolone) | self-aminoacylation (biotinyl-Phe-oxazolone) | self-aminoacylation (biotinyl-Ile-oxazolone) | self-aminoacylation (biotinyl-Met-oxazolone) | self-aminoacylation (biotinyl-Trp-oxazolone)
CUAUUUCAAACAAUAGGUCUG [Fam1A.1 aminoacylation ribozyme variant] | 1.08 | 1.01 | 1.03 | 1.25 | 1.11 | 0.803
AAGUUUGCUAAUCUUCGCAAG [Fam3.1 aminoacylation ribozyme variant] | 0.95 | 1.07 | 0.816 | 1.11 | 1.07 | 1.19
ACACACUUCAAUCAAUCGGUC [Fam1B.1 aminoacylation ribozyme variant] | 1.74 | 1.53 | 29.4 | 1.59 | 1.39 | 19.8
CUACUUCAAACCAUCGGUCAG [Fam1A.1 aminoacylation ribozyme variant] | 0.488 | 0.771 | 0.853 | 0.67 | 0.609 | 0.762
AAGUUUGCUUAUAGUCGCCAG [Fam3.1 aminoacylation ribozyme variant] | 0.933 | 0.955 | 0.665 | 1.08 | 0.883 | 1.08
AAGUUUGCGAAUAGUCGCAUG [Fam3.1 aminoacylation ribozyme variant] | 1.23 | 1.08 | 1.13 | 1.1 | 1.04 | 1
AUACACCUAUGUCAUCGGGUG [Fam2.2 aminoacylation ribozyme variant] | 3.86 | 2.52 | 17.3 | 2.46 | 3.42 | 3.58
AUUACGCUGGUCAUCGAGGGA [Fam2.1 aminoacylation ribozyme variant] | 1.98 | 2.03 | 1.38 | 1.61 | 1.46 | 2.25
AUUCACCUAGGUGAUCGGUUG [Fam2.2 aminoacylation ribozyme variant] | 0.93 | 0.921 | 3.17 | 0.875 | 0.928 | 1.03
AAGUUUGUUUAUAGUCGCAAG [Fam3.1 aminoacylation ribozyme variant] | 1.26 | 1.24 | 1.47 | 1.3 | 1.34 | 1.52
AAGUUUCCUAAUAGUCGAAAG [Fam3.1 aminoacylation ribozyme variant] | 1.44 | 1.14 | 2.75 | 1.45 | 1.1 | 1.76
CUACUACAAACUAUCGGUCUG [Fam1A.1 aminoacylation ribozyme variant] | 0.713 | 0.839 | 0.752 | 0.869 | 0.949 | 0.717
AUUACCCUGGUCAUCUAGUAA [Fam2.1 aminoacylation ribozyme variant] | 1.15 | 1.08 | 1.32 | 1.1 | 1.06 | 0.903
AUAACCCUGGUCAUCGAGUGC [Fam2.1 aminoacylation ribozyme variant] | 2.44 | 1.42 | 4.44 | 1.33 | 1.96 | 1.89
ACUCACCUAGGUGAUCGGGUG [Fam2.2 aminoacylation ribozyme variant] | 6.01 | 4.87 | 39.2 | 5.05 | 5.21 | 8.44
AAGUUUGUUGAUAGUCGCAAG [Fam3.1 aminoacylation ribozyme variant] | 1.09 | 1.09 | 1.36 | 1.14 | 1.09 | 1.19
AUUCACCUAGUUCAUCGGGCG [Fam2.2 aminoacylation ribozyme variant] | 1.96 | 1.93 | 5.7 | 1.95 | 2.19 | 2.88
AUUACCCUGGUCCUCGAGUGA [Fam2.1 aminoacylation ribozyme variant] | 3.55 | 2.24 | 6.54 | 2.07 | 3.43 | 3.77
CCACACUUUAAGCAAUCGGGC [Fam1B.1 aminoacylation ribozyme variant] | 1.65 | 1.34 | 1.22 | 1.61 | 1.63 | 1.01
GCACACUUCCAGCAAUCGGUC [Fam1B.1 aminoacylation ribozyme variant] | 1.73 | 2.31 | 1.1 | 2.01 | 1.55 | 2.11
CCACACAUUAAGCAAUCGGUC [Fam1B.1 aminoacylation ribozyme variant] | 0.667 | 0.867 | 1 | 0.966 | 0.709 | 0.62
CCAGACGUCAAGCAAUCGGUC [Fam1B.1 aminoacylation ribozyme variant] | 1.99 | 1.99 | 0.503 | 1.24 | 1.52 | 0.65
CUACUUCAAACAACCGUUCUG [Fam1A.1 aminoacylation ribozyme variant] | 0.625 | 0.676 | 0.558 | 0.723 | 0.611 | 0.515
AUUACCUUGGUCAACGAGUGA [Fam2.1 aminoacylation ribozyme variant] | 6 | 3.54 | 17.5 | 3.57 | 6.26 | 6.5
AUUCACCUAUGUCAUCGGGUA [Fam2.2 aminoacylation ribozyme variant] | 2.41 | 1.79 | 1.14 | 1.55 | 1.96 | 1.89
CUUCCCCUAGGUCAUCGGGUG [Fam2.2 aminoacylation ribozyme variant] | 10.5 | 5.07 | 60.1 | 4.92 | 8.7 | 7.71

Sequence | self-aminoacylation (biotinyl-Leu-oxazolone) | self-aminoacylation (biotinyl-Val-oxazolone) | self-aminoacylation (biotinyl-Phe-oxazolone) | self-aminoacylation (biotinyl-Ile-oxazolone) | self-aminoacylation (biotinyl-Met-oxazolone) | self-aminoacylation (biotinyl-Trp-oxazolone)
AGUACCUUGGUCAUCGAGUGA [Fam2.1 aminoacylation ribozyme variant] | 6.37 | 4.07 | 19 | 4.3 | 6.27 | 8.17
CCACACUUCAAACAAUCGGUA [Fam1B.1 aminoacylation ribozyme variant] | 0.734 | 1.02 | 1.62 | 0.873 | 0.947 | 1.47
CCACACUAAAAGCAAUCGGUC [Fam1B.1 aminoacylation ribozyme variant] | 0.677 | 0.959 | 0.761 | 0.867 | 0.688 | 0.746
AAAUUUGCUAAUACUCGCAAG [Fam3.1 aminoacylation ribozyme variant] | 1.25 | 1.34 | 1.63 | 1.36 | 1.33 | 1.51
AUUGACCUAGGACAUCGGGUG [Fam2.2 aminoacylation ribozyme variant] | 4.56 | 3.53 | 19.3 | 3.72 | 4.19 | 4.97
AAGUUUGCUAAUAGUCGCUAU [Fam3.1 aminoacylation ribozyme variant] | 1.06 | 0.984 | 1.39 | 1.31 | 1.26 | 1.08
AAGUUUACUAGUAGUCGCAAG [Fam3.1 aminoacylation ribozyme variant] | 1.29 | 1.14 | 1.48 | 1.44 | 1.53 | 1.29
AUUACCCCGGUCAUUGAGUGA [Fam2.1 aminoacylation ribozyme variant] | 6.53 | 3.79 | 43.9 | 3.22 | 7.29 | 8.47
AUUCACCUAGGGCAUCAGGUG [Fam2.2 aminoacylation ribozyme variant] | 1.7 | 1.46 | 1.46 | 1.35 | 1.6 | 1.55
CCACCGUUCAAGCAAUCGGUC [Fam1B.1 aminoacylation ribozyme variant] | 0.983 | 1.41 | 1.27 | 1 | 0.827 | 1.11
CCACUUCAAACAAUCGGACUG [Fam1A.1 aminoacylation ribozyme variant] | 1.26 | 1.1 | 22.6 | 0.9 | 1.03 | 14.9
CUUCACCUAGGUCAUGGGGUG [Fam2.2 aminoacylation ribozyme variant] | 4.06 | 2.7 | 11.6 | 2.5 | 2.84 | 3.7
CUACUUCAACCUAUCGGUCUG [Fam1A.1 aminoacylation ribozyme variant] | 0.79 | 0.884 | 1.32 | 1.01 | 1.03 | 1.02
AAGUUUGCUACUAGUCGUAAG [Fam3.1 aminoacylation ribozyme variant] | 0.759 | 0.783 | 0.833 | 0.772 | 0.848 | 0.867
AAGUUUGCUAAUUGUUGCAAG [Fam3.1 aminoacylation ribozyme variant] | 0.945 | 0.775 | 1.11 | 0.929 | 0.901 | 0.926
AAGUUUGCUAAUAGCCGCAAA [Fam3.1 aminoacylation ribozyme variant] | 1.38 | 1.58 | 1.38 | 1.92 | 1.86 | 1.3
AUUACCCCGGUCAACGAGUGA [Fam2.1 aminoacylation ribozyme variant] | 4.74 | 3.47 | 28.2 | 3.08 | 5.86 | 6.44
UCACAUUUCAAGCAAUCGGUC [Fam1B.1 aminoacylation ribozyme variant] | 0.847 | 1.07 | 2.47 | 1.04 | 0.73 | 1.56
AUUCACGUAGGGCAUCGGGUG [Fam2.2 aminoacylation ribozyme variant] | 6.02 | 5.03 | 43.3 | 3.79 | 4.63 | 5.13
AUUCACCAGGGUCAUCGGGUG [Fam2.2 aminoacylation ribozyme variant] | 9.42 | 5.45 | 57.5 | 4.8 | 7.51 | 6.99
AAGUUUACUAAUAGUCGCGAG [Fam3.1 aminoacylation ribozyme variant] | 1.91 | 1.22 | 2.41 | 1.83 | 1.59 | 1.54
AGGACCCUGGUCAUCGAGUGA [Fam2.1 aminoacylation ribozyme variant] | 10.9 | 5.05 | 36.7 | 4.59 | 10.5 | 10.7
AAGUUAGCUAAUGGUCGCAAG [Fam3.1 aminoacylation ribozyme variant] | 1.17 | 1.08 | 1.77 | 1.22 | 1.3 | 1.55
ACACACUUCAAGCAAACGGUC [Fam1B.1 aminoacylation ribozyme variant] | 0.941 | 1.04 | 1.56 | 1.02 | 0.749 | 1.13
AUUUCCCUGGUCAUCGAGGGA [Fam2.1 aminoacylation ribozyme variant] | 1.83 | 1.59 | 1.28 | 1.47 | 1.44 | 1.65

Reference: the supplement of paper PMC9233669
